In US20220162314A1 one finds EC50 (read off the curve) data, which are given here for one molecule.

The assay deals with Recombinant human CD8ab protein (extracellular domains of CD8a and CD8b with leucine zippers and tags) (human) (UniProt P01732). As to the kind of experiment: ELISA: antigen coated on the plate, antibody titrated, anti-IgG (Fc)-HRP and TMB, A450.
Sequence of Recombinant human CD8ab protein (extracellular domains of CD8a and CD8b with leucine zippers and tags) (human) (P01732 22-182, chain 1 of 2): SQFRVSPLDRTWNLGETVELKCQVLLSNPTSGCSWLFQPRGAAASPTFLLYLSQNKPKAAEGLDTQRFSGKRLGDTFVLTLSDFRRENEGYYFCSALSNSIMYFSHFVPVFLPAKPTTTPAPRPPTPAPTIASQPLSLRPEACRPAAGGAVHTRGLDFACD
Sequence of Recombinant human CD8ab protein (extracellular domains of CD8a and CD8b with leucine zippers and tags) (human) (P10966 22-170, chain 2 of 2, further chain): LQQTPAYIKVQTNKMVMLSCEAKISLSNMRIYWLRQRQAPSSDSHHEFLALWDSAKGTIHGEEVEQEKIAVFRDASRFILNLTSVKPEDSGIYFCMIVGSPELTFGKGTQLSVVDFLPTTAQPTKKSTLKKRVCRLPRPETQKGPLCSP

B1: xhCD8a1 (clone OKT8, Invitrogen) (antibody, from another filing, V domains shown)
VH: EVQLQQSGAELVKPGASVKLSCTASGFNIKDTYIHFVRQRPEQGLEWIGRIDPANDNTLYASKFQGKATITADTSSNTAYMHLCSLTSGDTAVYYCGRGYGYYVFDHWGQGTTLTVSS
VL: DVQINQSPSFLAASPGETITINCRTSRSISQYLAWYQEKPGKTNKLLIYSGSTLQSGIPSRFSGSGSGTDFTLTISGLEPEDFAMYYCQQHNENPLTFGAGTKLELK
As for B1, the EC50 (read off the curve) stood at 0.2 nM.
